# Measured values taken from US11560566B2, “Aptazyme-embedded guide RNAs for use with CRISPR-Cas9 in genome editing and transcriptional activation” (President and Fellows of Harvard College, priority 2017, dated 2023).
# What was measured:
# [1] = system: FANCF site; experiment: Theophylline-dependent base editing (BE3), FANCF site; type: cell-based, human; settings: ligand concentration 4 mM
# Excerpt: Cells were harvested 3 days after transfection.
# [2] = system: GFP gene (modified promoter) in HEK293T cells; experiment: Transcriptional activation of GFP reporter with dCas9-VPR in HEK293T cells; type: cell-based, human
# Excerpt: In addition to genome editing, transcriptional regulation is another widely used application of CRISPR-Cas9^4. To further explore the utility of agRNAs, we sought to develop an agRNA that responds to a different small-molecule ligand and activates the expression of a guide RNA-specified target gene, rather than editing a target gene through DNA cleavage. A previously reported guanine-aptazyme^24 that contains a naturally occurring guanine aptamer^25 was incorporated into the guide RNA and the resulting guanine-agRNA was tested for its ability to activate transcription of a GFP gene in HEK293T cells (FIG. 3c). […] In the presence of an active guide RNA, dCas9-VPR initiates transcription of GFP, ultimately resulting in cell fluorescence.
# (§1) To each well in a 48-well plate, 200 ng of dCas9-VPR plasmid, 0.5 ng of guide RNA plasmid and 60 ng of reporter plasmid were transfected using 1.2 μL Lipofectamine 2000. […] Cells were harvested 20 h after transfection.
# [3] = system: target dsDNA (full GFP gene); experiment: In vitro DNA cleavage assay (Cas9 + guide RNA); type: biochemical; settings: 10 nM target DNA, 100 nM guide RNA, 100 nM Cas9, 37° C.; for target DNA cleavage followed by gel electrophoresis: 1 h for sgRNA variants, 5 h for crRNA and tracrRNA variants
# Description: The blocker-linked guide RNAs were prepared by in vitro transcription and incubated in vitro with Cas9 protein and a target dsDNA. Target DNA cleavage was followed by gel electrophoresis (FIG. 1b).
# SpCas9 protein was purified as previously described^1,35. Guide RNAs were transcribed using a T7 High Yield RNA Synthesis Kit (NEB) following the manufacturer's protocol, and purified with the E.Z.N.A. PF miRNA Isolation Kit (Omega Bio-tek, Inc.). The target dsDNA (full GFP gene) was amplified by polymerase chain reaction and purified using QlAquick PCR Purification Kit (QIAGEN). For the cleavage reaction, 10 nM of the target DNA was incubated with 100 nM of the guide RNA in the presence of 100 nM Cas9 protein in a Cas9 DNA cleavage buffer (150 mM KCl, 10 mM MgCl2, 0.5 mM DTT, 0.1 mM EDTA, 20 mM HEPES pH 7.5). In vitro editing reactions were incubated at 37° C. for 1 h for sgRNA and its variants and the reactions for crRNA and tracrRNA and their variants were incubated at 37° C. for 5 h before being stopped with 6×DNA loading buffer and analyzed by non-denaturing agarose gel electrophoresis.
# [4] = system: endogenous GFP locus in HEK293-GFP cells
# Excerpt: To compare the activities of the guide RNAs with the blocking region either present or removed, a non-cleaving “dead” variant of HHR-bsgRNA (dHHR-bsgRNA) containing a single A to G point mutation in the catalytic loop of the hammerhead ribozyme was produced. To optimize the restoration of guide RNA activity by self-cleavage of the hammerhead ribozyme, the length of the blocking sequence was varied. Three sets of HHR-bsgRNAs and dHHR-bsgRNAs with blocking sequences of 10 to 17 nucleotides were constructed. The genome editing activities of these sgRNA variants in the presence of Cas9 in human embryonic kidney cells harboring genomic GFP genes (HEK293-GFP) were assayed by targeting the endogenous GFP locus (FIG. 2a).
# HEK293 cells with integrated GFP genes (GenTarget Inc.) were cultured in 48-well plates (40,000 cells seeded per well) in Dulbecco's Modified Eagle's Media plus GlutaMAX (DMEM, Life Technologies) with 10% FBS. Plasmids were transfected ˜20 h after plating when cells reached ˜70% confluence. To edit the GFP genes in HEK293 cells, 100 ng of Cas9 plasmid and 2 ng of guide RNA plasmid were transfected in each well using 1.2 μL Lipofectamine 2000 (Life Technologies) following the manufacturer's protocol. To distinguish transfected cells from non-transfected cells, 2 ng of an iRFP expression plasmid was co-transfected. A stock solution of 100 mM theophylline was made in 60 mM NaOH and was supplied to cells 6 h after plasmid transfection at designed concentrations. The cells were incubated for additional 7 days before analysis and media was changed at day 3, 5 and 6. Fresh theophylline was supplied immediately at the same concentration as in the initial condition each time the media was changed. GFP fluorescence was quantified by flow cytometry and the transfected live population was gated by iRFP signal.
# [5] = system: RFP reporter in HEK293T cells; experiment: Transcriptional activation of RFP reporter with dCas9-VPR in HEK293T cells; type: cell-based, human; settings: different spacer sequence
# Description: To further generalize this strategy, we tested the guanine-agRNA with three bulges for RFP activation in HEK293T cells with a different spacer sequence that is unrelated to the spacer used to target GFP.
# as §1
molecule,measurement,setting,value
Cn1c(=O)[nH]c(=O)c2[nH]cnc21 [3-methylxanthine],"response of theophylline-agRNA-mediated base editing to ligand, fold less strongly than to theophylline",[1],2 fold
"Nc1nc2nc[nH]c2c(=O)[nH]1 [guanine, reference compound]",effect of guanine on GFP fluorescence,"[2]; guanine in the medium from 0 to 200 μM, cells with (d) guanine-agRNA",slightly reduced GFP fluorescence
"blocked tracrRNA: tracrRNA with 42-nucleotide linker and 10-nucleotide blocking sequence appended to the 5′ end (nucleic acid, unmodified RNA) GGAUUUUAACUUUAGUAGUAGUAGGCAACCACGUCGCGUCCUAGUAGGCAUAGCAAGUUAAAAUAAGGCUAGUCCGUUAUCAACUUGAAAAAGUGGCACCGAGUCGGUGCUUUUUUU",target DNA cleavage followed by gel electrophoresis,[3],partial cleavage of the target DNA
"canonical sgRNA: canonical Streptococcus pyogenes single guide RNA targeting GFP, positive control (nucleic acid, chemistry not given here, canonical Streptococcus pyogenes single guide RNA targeting GFP, positive control) guide: GGGCACGGGCAGCUUGCCGGGUUUUAGAGCUAGAAAUAGCAAGUUAAAAUAAGGCUAGUCCGUUAUCAACUUGAAAAAGUGGCACCGAGUCGGUGCUUUUUUU",cleavage efficiency,[3]; 1 h,~100%
same,activity relative to that of the activated agRNA,"[4]; loss beyond the off-state, 62% vs 48%",1.3 fold
same,loss beyond the off-state,[4]; wild-type Cas9,62%
same,GFP loss,"[4]; wild-type Cas9, canonical guide, positive control",72%
guanine-agRNA: guanine-aptazyme-embedded guide RNA for GFP activation (nucleic acid) guide: GCAAGCUGCCCGUGCCCGGUACAUCCAGCUGAUGAGUCCCAAAUAGGACGAAAUACUAUAAUCGCGUGGAUAUGGCACGCAAGUUUCUACCGGGCACCGUAAAUGUCCGACUAGUGUCCUGGAUUCCACGGGCACGGGCAGCUUGCCGGGUUUUAGAGCUAGAAAUAGCAAGUUAAAAUAAGGCUAGUCCGUUAUCAACUUGAAAAAGUGGCACCGAGUCGGUGCUUUUUUU,off-state activity (GFP fluorescence),"[2]; absence of guanine, compared to control cells lacking any guide RNA",elevated GFP fluorescence
same,activation of GFP fluorescence,[2]; guanine added to media at 50 μM,5 fold
(d) guanine-agRNA: non-splicing mutant of guanine-agRNA (nucleic acid) GCAAGCUGCCCGUGCCCGGUACAUCCAGCUGAUGAGUCCCAAAUAGGACGAGAUACUAUAAUCGCGUGGAUAUGGCACGCAAGUUUCUACCGGGCACCGUAAAUGUCCGACUAGUGUCCUGGAUUCCACGGGCACGGGCAGCUUGCCGGGUUUUAGAGCUAGAAAUAGCAAGUUAAAAUAAGGCUAGUCCGUUAUCAACUUGAAAAAGUGGCACCGAGUCGGUGCUUUUUUU,GFP activation by guanine,"[2]; guanine 50 μM (dHHR-bsgRNA) or different concentrations ((d) guanine-agRNA), dCas9-VPR",only a low level of GFP expression that could no longer be activated by guanine
"post-cleavage sgRNA: processed HHR-bsgRNA without the blocking sequence, 11 extra nucleotides at the 5′ end (nucleic acid, chemistry not given here) guide: GCUGGAUUCCACGGGCACGGGCAGCUUGCCGGGUUUUAGAGCUAGAAAUAGCAAGUUAAAAUAAGGCUAGUCCGUUAUCAACUUGAAAAAGUGGCACCGAGUCGGUGCUUUUUUU",activity compared to the unmodified guide RNA,"[4]; HEK293-GFP cells, Cas9, sgRNA with 11 extra nucleotides at the 5′ end",maintained most of its activity
"blocked crRNA: crRNA with 42-nucleotide linker and 10-nucleotide blocking sequence appended to the 3′ end (nucleic acid, unmodified RNA) guide: GGGCACGGGCAGCUUGCCGGGUUUUAGAGCUAUGCUGUUUUGGAUGGCAACCACGUCGCGUCCUGUAGUAGUAUGAUAGCUCUAA",target DNA cleavage followed by gel electrophoresis,[3],partial cleavage of the target DNA
5′ spacer-blocked sgRNA: sgRNA with 42-nucleotide linker and 6-nucleotide blocking sequence complementary to the spacer at the 5′ end (nucleic acid) guide: GGUGCCCGUAGUAGUAGUAGCAACCACGUCGCGUCCGUAGUAGUAGUAGGGCACGGGCAGCUUGCCGGGUUUUAGAGCUAGAAAUAGCAAGUUAAAAUAAGGCUAGUCCGUUAUCAACUUGAAAAAGUGGCACCGAGUCGGUGCUUUUUUU,target DNA cleavage followed by gel electrophoresis,[3],no cleavage product could be detected
guanine-agRNA with three bulges: guanine-agRNA with bulged blocker and a different spacer for RFP activation (nucleic acid) guide: ACUGCGGGAUGGAGGAGACGGUACAUCCAGCUGAUGAGUCCCAAAUAGGACGAAAUACUAUAAUCGCGUGGAUAUGGCACGCAAGUUUCUACCGGGCACCGUAAAUGUCCGACUAGUGUCCUGGAUUCCACGUCCCCUCCACCCCACAGUGGUUUUAGAGCUAGAAAUAGCAAGUUAAAAUAAGGCUAGUCCGUUAUCAACUUGAAAAAGUGGCACCGAGUCGGUGCUUUUUUU,guanine-dependent RFP activation ratio,[5],~3 fold
